Source: PMC3646895, “The Carboxy-Terminal αN Helix of the Archaeal XerA Tyrosine Recombinase Is a Molecular Switch to Control Site-Specific Recombination” (PLoS ONE, 2013)
Where “and” joins values, the source holds several entries; their conditions need not be identical. Identical values can stand only once. Each block holds one molecule with its values, some of them ahead of it.

What was measured:
[1] = target: XerA recombinase from Pyrococcus abyssi, C-terminal His-tagged (Pyrococcus abyssi) (UniProt Q9V1P5); experiment: AUC; sedimentation velocity, 25°C, 0.3 mM (11.8 mg.ml^-1) XerA in 20 mM Tris-HCl pH 7.5, 1 M NaCl, 42,000 rpm; c(s) distribution and self-association model with fitted non-ideality; dimer to monomers
[2] = target: the molecule itself; experiment: SDS-PAGE of covalent protein-DNA complexes (assemblies resistant to thermal denaturation); 40 pmol XerA protein with 25 nM 5' end-labeled left half recombination site, 30 mM Tris pH 7.5, 50 mM NaCl, 2 h at 65°C, quenched in Laemmli buffer, 10 min at 100°C, 12% SDS-PAGE, phosphorimaging

Kd [1]: > 100 µM
stoichiometry N [1]: 2 and 4
Molecule: XerA recombinase from Pyrococcus abyssi, C-terminal His-tagged (from UniProt Q9V1P5 1-286) (enzyme)

B1: XerA-ΔC, XerA deleted for the last 13 amino-acids (αN helix), N-terminal His-tagged (domain or fragment, Pyrococcus abyssi, UniProt Q9V1P5 1-273, looked up)
chain: MEEREERVRDDTIEEFATYLELEGKSRNTVRMYTYYISKFFEEGHSPTARDALRFLAKLKRKGYSTRSLNLVIQALKAYFKFEGLDSEAEKLKTPKMPKTLPKSLTEEEVRRIINAAETLRDRLILLLLYGAGLRVSELCNLRVEDVNFEYGVIVVRGGKGGKDRVVPISESLLSEIKRYLESRNDDSPYLFVEMKRKRKDKLSPKTVWRLVKKYGRKAGVELTPHQLRHSFATHMLERGIDIRIIQELLGHSNLSTTQIYTKVSTKHLKEAV
notes: XerA tyrosine recombinase, Pyrococcus abyssi, deleted for the last 13 amino-acids corresponding to the αN helix alone; In the assay it is covalently linked to the cleaved DNA half site; also called ΔαN helix mutant; source: recombinant, obtained by PCR, expressed and purified following the procedure described for the wild-type enzyme
fold reduction of the high molecular weight complexes against XerA [2]: 4 fold
